Experimental data: the DeepSol protein solubility set

Test: soluble on expression in E. coli; label from the status in PepcDB or PDB records

Row | Sequence | soluble on expression in E. coli
1 | MSLPRGLELLIAQTILQGFDAQYGRFLEVTSGAQQRFEQADWHAVQQAMKNRIHLYDHHVGLVVEQLRCITNGQSTDAAFLLRVKEHYTRLLPDYPRFEIAESFFNSVYCRLFDHRSLTPERLFIFSSQPERRFRTIPRPLAKDFHPDHGWESLLMRVISDLPLRLRWQNKSRDIHYIIRHLTETLGTDNLAESHLQVANELFYRNKAAWLVGKLITPSGTLPFLLPIHQTDDGELFIDTCLTTTAEASIVFGFARSYFMVYAPLPAALVEWLREILPGKTTAELYMAIGCQKHAKTESYREYLVYLQGCNEQFIEAPGIRGMVMLVFTLPGFDRVFKVIKDRFAPQKEMSAAHVRACYQLVKEHDRVGRMADTQEFENFVLEKRHISPALMELLLQEAAEKITDLGEQIVIRHLYIERRMVPLNIWLEQVEGQQLRDAIEEYGNAIRQLAAANIFPGDMLFKNFGVTRHGRVVFYDYDEICYMTEVNFRDIPPPRYPEDELASEPWYSVSPGDVFPEEFRHWLCADPRIGPLFEEMHADLFRADYWRALQNRIREGHVEDVYAYRRRQRFSVRYGEMLFEGHHHHHH | not soluble
2 | MSLQNRIMITGAGSGLGREMALRWAREGWRLALSDINDAGLQETLALVREAGGDGFVQRCDVRDYSQLTAFAQTCEERFGGMDIIVNNAGVASGGFFNELSLEDWDWQIAINLMGVVKGCKAFLPMLQASKGKIINIASMAALMQAPAMSNYNVAKAGVVALSESLLVELRDQDVGVHVVCPSFFQTNLLDSFRGPTPAMKAQIGRLLEKSPITATDIADYIFTQVAEGEFMILPHEEGRLAWDMKRQQPQAMYDEMTVMCAKMRAKAQKGEGHHHHHH | soluble
3 | MSLQRFNQRVWMMFGEFNLIDKYFSNRQAQRKDVHLALGDDCAIVKVPENSRVAISTDTLVAGTHFLAQANPAWVAHKALASNISDLAAMGATPAWVSLALTLPEIDDAWLTPFCDAFFELAKYYNVQLIGGDTTKGPLSITLTVQGFLPKEQAMLRSGAKVGDWLYVTGDLGDSQAGLDVILDPEKRHLPFADILEQRHYLSTPRIVAGQALVHLASSAIDISDGLIADLQHILRRSNVGASIDVSLLPLSKELLQFVDSVTSAQQYALTSGEEYELCFTIPEENRGSLENALAHCGTKVTCIGQIRPAGTFELHNQGKKLDWQLAGYDHFKVKAEGHHHHHH | soluble
4 | MSLQRPVMLLSDDDSEVRRLVYDSLDRLGCEMEEPDNGEQALAAFRRIQPEIVLLDLAMTQADAFELCASLHGARGGERVSILAVAGRGDLEGVRRAIDAGATDFLIHPVDVEMLGLRLSCGRRSAQTRERLSRNEERNRGLIKGIPHLVLQISKEGTVLDFEAPRDFDLRQFPDGLRGRRIQDVFFADAPYVIVRCIERVIETAESQVLEHNVRIGNDIHVYETRILPNAEGEPTVVMRDVTERRKMEKEGHHHHHH | soluble
5 | MSLRCPTCQYNGTRVVDSRPADDGNSIRRRRECEKCGFRFTTFEKVEESPLIVVKKDGAREEFAREKVRRGLIRACEKRPVSAEQIEEIVNEVERELRNIGDSEIASDLIGEKVMNKLANLDEVAYVRFASVYRQFKDISVFVEELKDLMEKNKEGHHHHHH | soluble
6 | MSLRDYAEIAASGILRAVTEYNSISFYADGDTVSGFHYELLHAFAHSKGLKPEITPEMSFSKRLEDVQKGTYDILANSTVVTTEYKDSLLFTRPIILNKQVLVQRKPEKENDSLYIHSQLELARKTLHLVKNSPAILRIHNLSNEIGDTIYIKEVEKYGQEQLLAMVAHGDIDYAVCDESIAKASINDFPQLDIETAISFSQFYSWGVSKHSPILLDSLNSWLNDYVKTPAFKLLRKKYYNNEGHHHHHH | soluble
7 | MSLRFDGKVAIVTGAGGGLGKTYALELAKRGCKVVVNDLGGDRHGTSSSSSMADKVVQEIKSAGGQAVANYDSVEFGDKIVKTAIDNFGRIDIVINNAGILRDVSFLKMTELDWDLIFKVHVKGAYAVTKAAWPYMRDQKYGRIVVTSSNAGVHGNFGQANYAAAKSALIGLSNSLAQEGAKYNILANTLVPTAGSRLTETVMPQNLVDALKPDYVTPLVTYMVHDSFEESGKVFEAGAGWYGTIQYYKSKGKVISHASADDIAKNWSTITNMNGAEYIGTITEQSARLVSILEEHEASSGSSSASSGASSGGAFPSNIRSSALFQEMADGVKADPTAVKTLKSIVLYIITDGKNELGKFTLDFKSASPSVYLGDVKNGEKANATVTVADSDFVDIAAGKLNAQKAFMSGKLKVKGNVMLLQKLQTVLEKAKKSKL | not soluble
8 | MSLRHLQSTIHPELDHLDDKIIFQRNAARAIVLDGEDVLLLYTERYHDYTLPGGGIDEGEDVIAGLVRELEEETGAQNIHSIKPFGIFEEFRPWYKDDADVMHMISYCYTCKIDRELGETAYEDYEVKNGMRPVWMNVHEAIAHNEKTMAESPKKGMSIERETFLLHLIAKELLEGHHHHHH | soluble
